Measured values as given in patent US20050064507.

Tests used:
[1] = system: T1, peptide IDYYKKTTNGRLPVK (SEQ ID NO:73)
T1 sequence: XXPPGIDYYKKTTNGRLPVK

[2] = system: T2, PPP1R14A peptide QKRHARVTVKYDRRE (SEQ ID NO:107)
T2 sequence: QKRHARVTVKYDRRE

[3] = system: T3, peptide NMEAKKLSKDRMKKY (SEQ ID NO:40)
T3 sequence: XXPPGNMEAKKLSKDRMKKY

[4] = system: T4, peptide RVKLGTLRRPEGP (SEQ ID NO:58)
T4 sequence: XXPPGRVKLGTLRRPEGP

[5] = system: T5, NF1 peptide SQVQKQRSAGSFKRNSIKKI (SEQ ID NO:127)
T5 sequence: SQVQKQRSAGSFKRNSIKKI

[6] = system: T6, kinesin 3C peptide LEKRGMLGKRPRRKSSRRKK (SEQ ID NO:133)
T6 sequence: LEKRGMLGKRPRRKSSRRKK

[7] = system: T7, M1 muscarinic receptor peptide RWDKRRWRKIPKRPGSVHRT (SEQ ID NO:155)
T7 sequence: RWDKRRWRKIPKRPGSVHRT

[8] = system: T8, ankyrin R peptide DLIEGRKGAQIVKRASLKRG (SEQ ID NO:152)
T8 sequence: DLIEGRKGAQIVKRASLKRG

[9] = system: T9, peptide KKKKKRFSFKKSFKL (SEQ ID NO:12)
T9 sequence: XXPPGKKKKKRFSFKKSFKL

[10] = system: T10, NIK peptide WKGKRRSKARKKRK (SEQ ID NO:131)
T10 sequence: WKGKRRSKARKKRK

[11] = system: T11, peptide NRKKKRTSFKRKA (SEQ ID NO:3)
T11 sequence: XXPPGNRKKKRTSFKRKA

[12] = system: T12, MYBPC3 peptide LLKKRDSFRTPRDSKLE (SEQ ID NO:103)
T12 sequence: LLKKRDSFRTPRDSKLE

[13] = system: T13, peptide QQKIRKYTMRRLLQE (SEQ ID NO:33)
T13 sequence: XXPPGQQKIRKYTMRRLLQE

[14] = system: T14, peptide KKKKRASFKRKSSKKG (SEQ ID NO:2)
T14 sequence: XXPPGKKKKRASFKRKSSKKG

[15] = system: T15, peptide AQIVKRASLKRGKQ (SEQ ID NO:10)
T15 sequence: XXPPGAQIVKRASLKRGKQ

[16] = system: T16, peptide GENVLKKSMKSRVKG (SEQ ID NO:36)
T16 sequence: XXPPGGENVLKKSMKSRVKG

[17] = system: T17, ARHGAP6 peptide DGQKRKKSLRKKLD (SEQ ID NO:92)
T17 sequence: DGQKRKKSLRKKLD

[18] = system: T18, peptide ALRRPSLRREADD (SEQ ID NO:26)
T18 sequence: XXPPGALRRPSLRREADD

[19] = system: T19, LIMK2 peptide KATTKKRTLRKNDRK (SEQ ID NO:108)
T19 sequence: KATTKKRTLRKNDRK

[20] = system: T20, peptide RGEGHKPSIAHRDFK (SEQ ID NO:68)
T20 sequence: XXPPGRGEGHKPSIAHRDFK

[21] = system: T21, peptide PRLIRRGSKKRPAR (SEQ ID NO:6)
T21 sequence: XXPPGPRLIRRGSKKRPAR

[22] = system: T22, peptide IKVTHKATGKVMVMK (SEQ ID NO:65)
T22 sequence: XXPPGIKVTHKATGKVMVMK

[23] = system: T23, beta adducin peptide PSKSPSKKKKKFRTPSFLKK (SEQ ID NO:137)
T23 sequence: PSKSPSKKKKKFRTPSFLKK

[24] = system: T24, peptide DDMEHKTLKITDFG (SEQ ID NO:55)
T24 sequence: XXPPGDDMEHKTLKITDFG

[25] = system: T25, EBNA1BP2 peptide KRPGKKGSNKRPGKR (SEQ ID NO:112)
T25 sequence: KRPGKKGSNKRPGKR

[26] = system: T26, peptide VFREHQRSGSYHVRE (SEQ ID NO:45)
T26 sequence: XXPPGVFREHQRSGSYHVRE

[27] = system: T27, peptide DLLGKKVSTKTLSEDD (SEQ ID NO:51)
T27 sequence: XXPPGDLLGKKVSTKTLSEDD

[28] = system: T28, ribosomal protein S6 peptide AKRRRLSSLRASTSK (SEQ ID NO:120)
T28 sequence: AKRRRLSSLRASTSK

[29] = system: T29, CACNA1C peptide RGFLRSASLGRRASFHLE (SEQ ID NO:96)
T29 sequence: RGFLRSASLGRRASFHLE

[30] = system: T30, NCF1 peptide GAPPRRSSIRNAH (SEQ ID NO:101)
T30 sequence: GAPPRRSSIRNAH

[31] = system: T31, p164-RhoGEF peptide PRLIRRGSKKRPAR (SEQ ID NO:124)
T31 sequence: PRLIRRGSKKRPAR

[32] = system: T32, CHRM1 peptide RKIPKRPGSVHRTPSRQ (SEQ ID NO:83)
T32 sequence: RKIPKRPGSVHRTPSRQ

[33] = system: T33, MCM2 peptide VQRHRSMRKTFARYLSFRRD (SEQ ID NO:129)
T33 sequence: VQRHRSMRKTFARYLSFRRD

[34] = system: T34, ANK1 peptide AQIVKRASLKRGKQ (SEQ ID NO:90)
T34 sequence: AQIVKRASLKRGKQ

[35] = system: T35, peptide EKIKRSSLKKVDSLKK (SEQ ID NO:24)
T35 sequence: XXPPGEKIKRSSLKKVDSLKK

[36] = system: T36, SDPR peptide EKIKRSSLKKVDSLKK (SEQ ID NO:104)
T36 sequence: EKIKRSSLKKVDSLKK

[37] = system: T37, peptide AARKKRISVKKKQEQ (SEQ ID NO:8)
T37 sequence: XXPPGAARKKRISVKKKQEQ

[38] = system: T38, MLK3 peptide HVRRRRGTFKRSKLRARD (SEQ ID NO:76)
T38 sequence: HVRRRRGTFKRSKLRARD

[39] = system: T39, AKAP12 peptide AGWRKKTSFRKPKED (SEQ ID NO:99)
T39 sequence: AGWRKKTSFRKPKED

[40] = system: T40, peptide GQAWGRQSPRRLED (SEQ ID NO:46)
T40 sequence: XXPPGGQAWGRQSPRRLED

[41] = system: T41, fit1 peptide VQMTWSYPDEKNKRASVRRR (SEQ ID NO:158)
T41 sequence: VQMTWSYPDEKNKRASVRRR

[42] = system: T42, peptide GAPPRRSSIRNAH (SEQ ID NO:20)
T42 sequence: XXPPGGAPPRRSSIRNAH

## PKC-delta
[1]
  in vitro phosphorylation (% of best substrate): 0
[2]
  in vitro phosphorylation (% of best substrate): 10
[3]
  in vitro phosphorylation (% of best substrate): 3
[4]
  in vitro phosphorylation (% of best substrate): 1
[5]
  in vitro phosphorylation, 1 uM peptide (% of best substrate): 52
  in vitro phosphorylation, 10 uM peptide (% of best substrate): 33
[6]
  in vitro phosphorylation, 1 uM peptide (% of best substrate): 46
  in vitro phosphorylation, 10 uM peptide (% of best substrate): 52
[7]
  in vitro phosphorylation, 1 uM peptide (% of best substrate): 30
  in vitro phosphorylation, 10 uM peptide (% of best substrate): 23
[8]
  in vitro phosphorylation, 1 uM peptide (% of best substrate): 35
  in vitro phosphorylation, 10 uM peptide (% of best substrate): 18
[9]
  in vitro phosphorylation (% of best substrate): 24
[10]
  in vitro phosphorylation, 1 uM peptide (% of best substrate): 38
  in vitro phosphorylation, 10 uM peptide (% of best substrate): 29
[11]
  in vitro phosphorylation (% of best substrate): 66
[12]
  in vitro phosphorylation (% of best substrate): 12
[13]
  in vitro phosphorylation (% of best substrate): > 5
[14]
  in vitro phosphorylation (% of best substrate): 76
[15]
  in vitro phosphorylation (% of best substrate): 32
[16]
  in vitro phosphorylation (% of best substrate): 4
[17]
  in vitro phosphorylation (% of best substrate): 17
[18]
  in vitro phosphorylation (% of best substrate): 9
[19]
  in vitro phosphorylation (% of best substrate): 6
[20]
  in vitro phosphorylation (% of best substrate): 1
[21]
  in vitro phosphorylation (% of best substrate): 40
[22]
  in vitro phosphorylation (% of best substrate): 1
[23]
  in vitro phosphorylation, 1 uM peptide (% of best substrate): 38
  in vitro phosphorylation, 10 uM peptide (% of best substrate): 16
[24]
  in vitro phosphorylation (% of best substrate): 2
[25]
  in vitro phosphorylation (% of best substrate): 8
[26]
  in vitro phosphorylation (% of best substrate): 2
[27]
  in vitro phosphorylation (% of best substrate): 2
[28]
  in vitro phosphorylation, 1 uM peptide (% of best substrate): 64
  in vitro phosphorylation, 10 uM peptide (% of best substrate): 32
[29]
  in vitro phosphorylation (% of best substrate): 18
[30]
  in vitro phosphorylation (% of best substrate): 13
[31]
  in vitro phosphorylation, 1 uM peptide (% of best substrate): 69
  in vitro phosphorylation, 10 uM peptide (% of best substrate): 43
[32]
  in vitro phosphorylation (% of best substrate): 38
[33]
  in vitro phosphorylation, 1 uM peptide (% of best substrate): 32
  in vitro phosphorylation, 10 uM peptide (% of best substrate): 14
[34]
  in vitro phosphorylation (% of best substrate): 32
[35]
  in vitro phosphorylation (% of best substrate): 10
[36]
  in vitro phosphorylation (% of best substrate): 10
[37]
  in vitro phosphorylation (% of best substrate): 35
[38]
  in vitro phosphorylation (% of best substrate): 100
[39]
  in vitro phosphorylation (% of best substrate): 17
[40]
  in vitro phosphorylation (% of best substrate): 2
[41]
  in vitro phosphorylation, 1 uM peptide (% of best substrate): 18
  in vitro phosphorylation, 10 uM peptide (% of best substrate): 33
[42]
  in vitro phosphorylation (% of best substrate): 13
